Results published in the DeepSol protein solubility set.

Experiment: soluble on expression in E. coli; label from the status in PepcDB or PDB records

Sequence | soluble on expression in E. coli
MNLYIASIKLWFKGFKENTERSITYSFEPNKINVITGDSSTGKSSILDIIDYLLLSDNPTIVENIINENVEFYGMNIFLEERSYILMRKAPHSGQGTQDVYWKEQEEYPMPYIQTHSVGEMRTILTRMFYVPQHETKVGNRKYNMTFRHFLPFNYLTEDIISSANTYFDTAFFINRSYDVFLDYALELVNGIQYHNANEIKAKIEKAEIDLKQYQKKHQIAQENATKYKASLTSIYDDALSLNLIPADNFFVRENAHEMLHYIKEALAAYNKLIKNDEDTKKLELLKKERYELNNKLSIYNSLLAEMQKQKSSGKKIQDSLRPITFIKEHIDEVIISPETIELLHLLEKQLVQIKESRKEKPKLPHDFALRHEELKDKLKACESKLKELTILRKTIANPKWLERAIGLKYRLENLKRPKEDTYQASTEQNMISLIESLKIEQKNMSLLPHDVKEKLNSYINKYFHSINGIVDSYPDSTMRYDDDERRISLLNNGEDYPVRNIGSKSNYMFLHLCFFLGLHESIMFHRSKHVGSFLFIDQPSMPYYADKGTLDNDDKKQLIKAFRLLNEFMEEIIGNQNRSFQMILIEHADESYWKELEYFHTTATFSKIAQGGLIPKYIYE | not soluble
MNMIDKIGVHDVPPGESLQPPRIPYTPIFSNKRLSKHMSRFLIYFLPFFIYSGNVLSKTSCLMATGVLKCPTDPEAVKKVHIDLWDEDSLPLESDDLMGRTWSDRNGNFQVTGCASDFGPINTPDPYLYIQHNCPHRDSNATNPIQVYLKVLENASF | not soluble
MNNDKLQRMVENLSEEKFGRTFRHCAYFNKRLRTTGGRYLLKSHDIEINPKQYEHYGEDAVVKIILHELCHYHLHIAGKGYQHKDQDFKRLSQQVGAPRFCNSIESYQQRANYEYYCTKCHAKYIRIRKVDTNRMRCGHCNGKLRMKRQLK | not soluble
MNNEFLQTEEDIVRMLRTVYDPEIPVNVYDLGLIYNVDVGADGFVTVTMTLTAPNCPAADFIIEDVRMKVESVKGVKGVKIDLTFEPEWNKDMMSEEAMLELGFL | not soluble
MNNKLTPVSPGEMLAEEFLIPLGMSNYRLAKEIGVSAQRIGEIVTGKRAITVDTDLRLCRFFGLSDGWWLRLQVDYDIEMARGALEETLAKIRPWANTQEHGTPA | not soluble
MNNQNNNFVDFSEDDDMMDADFLGVVIPDDLMNASLEFQRTEPFSFIPAEEDLAPMEILPNNQGDVEMTAVDKNPDKVLFELRVETQIEPTLNYINAENEAVEWDIKSYYDFDNPQRPAQADEAATYQENGYGFVDFQPFAQQQQPAYNGNEPEFLIQRMQITDETYANAHFHQNEYAIEEKPSLFSPSSTPSYCCTSGPISPAYTPIGNNANACAPTRSRRTSTASNKSGGKIGKVAKLGEKSSGEKRTRMTKAEMSRLTEKEKLERKKEQNRANAKNCVKNRNNSKEELKQTLEMLREKVQEAKRQNEMQENGLLAAYETNIFAVQGNNFPYGSLELFYDQLQGSKAEAVEQVQYDNNGEVVQLEEAFNKTEQDYGQYTSVKKIAGLPQNTFASKKSRAKTAFEIADHQLNLKKEEVELREANAIKVVLNQITRELNRYMDGAKLAEQQAFDENFQQFEPS | not soluble
MNNSNRIIPFAFKSSEHGSYEDEMMEMEDVVDVEDYMGGEKYDSYNDAKEDIKDFKTTQRMKKIHRMEKIEQNIASEKIDIIELGTRVMVSTSDKTLNEASLERTIRCGISEATFLGDISMESLVEGMVNPSAADGRFAMLGTSIMLNALKSNIKDLRGTIVGQTTNTNSESKFDKIDLSLMNLSHCQQTSYNIRATGVFSNADLQYVFSLLTFRRNAKLLNKTKQFIKAYFCVACRPRCMIWRYTLRRAGNSQRRAILNLPSAIVSTITQFLLDLTGISDANIPYDQLDPMTPLSISLGEDESMRVQRYEEACRLKDPLTRFFRDAITDCLNELREMPFCLNTGILLSPLRGREQGTSCVTWKDYEGFLKREHDLPSEANMKKRTQFEQRLCDIIPRVRRPVPN | not soluble
MNNWREIAVRPDESIRETLEVIDEGAVQIAIVADGHDHLQGIVTDGDIRRGILKDLDLGAPVASVMNEDPITARPQEDRQSLIDTMRARRIHQIPLVDNEGRVVGIEVLDDLLEPEARPNPVVLMAGGLGTRLRPLTDDCPKPLLEVGDKPILETILEGFIAHGFHRFYLSVNYKAGMIEDYFRDGSNWGVDISYVHEEKRLGTAGPLSLLPERPDETMIVMNGDLLTKLNFTHLLDFHREHGAVATMCVREHETQVPYGVIETDDQSMEGIEEKPTERYFVNAGIYVLEPETLGYVPENEFFDMPDLFKRLIDEGKEATVFPVREYWQDVGRKEDFHRVNGEYEEVFDTLEHHHHHH | soluble
MNPKFRSFFSKNAEIFRFSLSENPEIFRFSRHFSMKSFYDIIEIDEIATFDDVKKAYFRFLRKDNRPIYDSWLREQRLRETQGTIGETIELEYGERDVDEYCRKKIPKKNIFSKKKKRFFRTFSNRPNPRHGNLRVLLVLPLSRNPSLLHHHHHPRHPLKKMSSLDESSTKILVLGDSCVGKTSLCHCIAGGGEPPGGGRSFDSTIGATVVMAWHEYRAGTPEQRTELLELWDIGGMVAHRQAAQVFFEGAVGAILVHDLTNKRSEENLATWLTMLDGKPRGAAPKSSKDPAAVALKVDIESCNIPVLIVGTKADLVPHKGPVSYDRYDGLGNANSAISVWKPRNRRKNSKKPMKIGRKLVVEKEKVKKFGRQYLRRGLGFSFSSARWHKEMTEARNVQKSMKMVIFRLFSMGGRN | not soluble
MNPQLLRVTNRIIERSRETRSAYLARIEQAKTSTVHRSQLACGNLAHGFAACQPEDKASLKSMLRNNIAIITSYNDMLSAHQPYEHYPEIIRKALHEANAVGQVAGGVPAMCDGVTQGQDGMELSLLSREVIAMSAAVGLSHNMFDGALFLGVCDKIVPGLTMAALSFGHLPAVFVPSGPMASGLPNKEKVRIRQLYAEGKVDRMALLESEAASYHAPGTCTFYGTANTNQMVVEFMGMQLPGSSFVHPDSPLRDALTAAAARQVTRMTGNGNEWMPIGKMIDEKVVVNGIVALLATGGSTNHTMHLVAMARAAGIQINWDDFSDLSDVVPLMARLYPNGPADINHFQAAGGVPVLVRELLKAGLLHEDVNTVAGFGLSRYTLEPWLNNGELDWREGAEKSLDSNVIASFEQPFSHHGGTKVLSGNLGRAVMKTSAVPVENQVIEAPAVVFESQHDVMPAFEAGLLDRDCVVVVRHQGPKANGMPELHKLMPPLGVLLDRCFKIALVTDGRLSGASGKVPSAIHVTPEAYDGGLLAKVRDGDIIRVNGQTGELTLLVDEAELAAREPHIPDLSASRVGTGRELFSALREKLSGAEQGATCITF | soluble
MNQLTSSFIQNLAEDNIYKLPPHSIEAEQSVLGGLMLDNQAWDKVADIIIESDFYRQDHQLIYQHISRLIEQNKPADVITVAESLENAAQLQHAGGLAYIGAIAQNTPSAANIRRYAEIVRERSIMRKL | not soluble
MNQSDVLSNSMKQATINNEAHVIIDDIDTAHKELDILQQEVDKVIFGQNHVIEYALTSILAGGHALLVGVPGLAKTRLVETLGIVLGLDEKRIQFTPDLMPSDIIGSEIMDSDKSGKRSFRYLQGPIFTQLLMADEINRASPRTQSALLQAMQEYHVTVAGTRYDLPQPFHVLATQNPLEQEGTYPLPEAQLDRFLMQIDIDYPDLTTERRIILDTTGGKNQNAKPVLSAKTLQKIQKIVRKMPISENVVEAILKLVRSARPHKENSLANTYVAWGPGPRASQALSLCARARALYHGRLSPSLDDIATLACPVLQHRMALNFSARAENITIKDIIDNLVKDAL | not soluble
MNRISTSSVNSSFNYTAPTEEAQNRFASAPDNSPLVVTTTSIAQASEGLQRPGATLSMQAQRLRQLMGSPSEQCRRDTMLAKAFDAQRLNINTQAGSSNSPHLNALNTLQQRHFKPAAGGLEIPVTSNSLLGGGRQVYQIGSSSRELSHRPVNDQDRAPFRALERLHAELFRGGPIEFVPRGSNVLASNVRDVDMDEFDVINSKDGCQGIGTTGLGPCIAVCARGMDREGLPVLGVYHHSGIGSPEDTMATLDQAMRDKGALQIKYSLVGGMIMPKEEEAGSYDDEQSFLALKGSYSIEGARLHVSEGEEDVHTGEDNSVNVLLMPDRVLYGRDTLYC | not soluble
MNRLHRWNWLVLSAALVTLPFTTPTQAAGVSVSQGSSASLSQAELEQMLAPIALYPDSLLSHILIASTYPLELVQAQRWLEDHPKLSVEQVMSRTEDKGWDPSVKALMAFPNVLQKMSEDLDWTQRLGEAFLANEGQVMDGIQSLRQQADKANSLANMDNMAVTRANNQIIIEPVRREVVYVPYYDPRVVYGTWRWGVAYPPVYWQFGGYVGNPYRPSHSYFYWSPGIHISFNYFFSSFHWHRHKVVVIDHHHSHHYRPRERYSVSHGAQPWKHKPEHRRGVAYHHPVVKERYYSDSKYRGRDSHSSGSGQHFTSQYAKSREHQDTRDNRDNQRDDKRHDKDRGNQYSRERTPNLQHTQAELKERRATPMDSSQTHRENYQREHRQKERNDNGRHDNQVRQNQAKTMREQTNDTWQRQYQQREYQSSDQQPRHVETRAQPQRHEARPEVRRPEPQRIEQPRQAQPRQREEVRTRPSESRQHTQCGA | not soluble
MNRRDFIKAASGGALLLGAAPSVSHAAAENRPPIPGSLGMLYDSTLCVGCQACVTKCQDINFPARNPEGEQTWSNNDKLSPYTNNIIQVWRSGTGVNKDQEENGYAYIKKQCMHCVDPNCVSVCPVSALKKDPKTGIVHYDKDVCTGCRYCMVACPYNVPKYDYNNPFGALHKCELCNQKGVERLDKGGLPGCVEVCPAGAVIFGTREELMAEAKKRLALKPGSEYHYPRQTLKTDDTYLHTVPKYYPHLYGEKEGGGTQVLVLTGVPYEDLDLPKLDDLSTGARSEHVQHTLYKGMILPLAALAGLTVLVRRNSKNDHHDGGDDHES | not soluble
MNRRLELYYTRQLLVISKYCQDQTKEIVLPTVGQNIGDSWITDIFVKLREKLVKYTTQVSRPLATKVVQDSQKEVDAQIAEHTKSIIGVDLTPFYRASDIQDVVDTNIAANVALIKSIPNQYVDKLEALVMNAFQTGQTNEDLAKAIAQLGQSTDSRARLIAADQMGKVNGQINKARQLSMGVETYVWQTAKDERVRKDHQHKQGKTFRWDDPPTGGHPGEPIRCRCTALPNYEDILVD | not soluble
MNSEQADILDLLSGHTDDTTIERLAFECLLTNMTDDRVVSLMNILGWQGDFNCFAIGGVPSASLASTSLAIRKAVRDLGGEHVVIGTYGTFLLALACQMGAVTPEVTCTAVMPAFSEDEPLYLSPVRSGVAGASHALRETMFSLQAAPALSTPSRPLRADELLPERALLGDDYAREELYRNVYQVLRGENPDDPTYLTVSTFLKYGSSLENTAKELNVHPNTVRYRLKRAAETTGWDATDPRDAYVLTTALAIGRMRDR | soluble
MNSILICGGAGYIGSHAVKKLVDEGLSVVVVDNLQTGHEDAITEGAKFYNGDLRDKAFLRDVFTQENIEAVMHFAADSLVGVSMEKPLQYYNNNVYGALCLLEVMDEFKVDKFIFSSTAATYGEVDVDLITEETMTNPTNTYGETKLAIEKMLHWYSQASNLRYKIFRYFNVAGATPNGIIGEDHRPETHLIPLVLQVALGQREKIMMFGDDYNTPDGTCIRDYIHVEDLVAAHFLGLKDLQNGGESDFYNLGNGNGFSVKEIVDAVREVTNHEIPAEVAPRRAGDPARLVASSQKAKEKLGWDPRYVNVKTIIEHAWNWHQKQPNGYEK | soluble
MNSIRSSPAIGENRTVYIGSYDGKLYAFNPDGTLKWSYTTGNQITGSATIGADGTICIGSYDRRLYTINPDGTLKWSYTTGNQIFSSAAIGEDGTIYVGSRDNKLYALNPDGTLKWSYTTGNQIFSSAAIGEDLEHHHHHH | not soluble
MNSPLDVKDLIDLGRDPVVVFNPPSIGTPDRIERYHAALEWLIGRERPFVLVTRADGDEASESHEDRKSRAVWFKNNLMALAQVCRGFVYVEQDEARRAAWQVRAEGMAKTFPVPMIIAGDMEAAITQALDLVKASRDPAPGGSPHA | not soluble
